The values that follow come from PMC7935256 (PLoS Pathogens, 2021).

Holding throughout (assay): BLI
Details in all cases: both partners purified

In assay [1] the target is T1, DENV1 WestPac74 strain recombinant E protein ectodomain (residues 1-394) (dengue virus serotype 1, strain WestPac …).
T1 construct: also called DENV1 WestPac 74 rE protein; Western Pacific 1974

Assay [2] addresses T2, DENV2 PVP94/07 strain recombinant E protein ectodomain (residues 1-394) (dengue virus serotype 2, strain PVP94/07).
T2 construct: also called DENV2 PVP94/07 rE protein

Assay [3] concerns the target DENV2 NGC strain recombinant E protein ectodomain (residues 1-394) (dengue virus serotype 2, strain NGC).

B1: human monoclonal antibody (HMAb) 1C19, IgG (antibody, V domains shown)
VH: QVQLVESGGGVVQPGRSLRLSCAASGFIFSNYGMHWVRQAPGKGLEWVAVISYDGSDKRYADSVRGRFTISRDNSKNTLFLQVTSLRAEDTAVYYCAKELSGYDPGFEYWGQGTPVTVSS
VL: DIQMTQSPSTLSASVGDRVTITCRASQSINTWLAWYQQKPGKAPKLLIYKASSLESGVPSRFSGSGSGTEFTLTISSLQPDDFATYYCQQYESYATFGQGTKVDIK
notes: also called IgG 1C19
As to B1, the dissociation constant (Kd) in assay [1] came out at 0.844 nM; in assay [2] it was 19 nM; in assay [3], 4.55 nM.

A word on the Kd: it is the free concentration of one partner at which half of the binding sites on the other are occupied at equilibrium, for simple one-to-one binding.
